# Reference: patent US20110016537A1, “Cellular model of tauopathies for lead identification and drug discovery” (Georg-August-Universitat Gottingen Stifung offentl, priority 2003, published 2011)
# Assays:
# [1] = molecular target: tau mutant M123 (triple mutant, M1+M2+M3) with GFP fused at the N-terminal (human) (UniProt P10636); assay: immunocytochemistry, SHSY5Y cells 36 h after transfection
# [2] = molecular target: wild-type human tau 441 with GFP fused at the N-terminal (human) (UniProt P10636); assay: as above
# [3] = molecular target: tau mutant M123 (triple mutant, M1+M2+M3) with GFP fused at the N-terminal (human) (UniProt P10636); assay: immunocytochemistry, transfected SHSY5Y cells
# tau mutant M123 (triple mutant, M1+M2+M3) with GFP fused at the N-terminal (human), sequence (P10636 other isoform, or with tags, fused parts or gaps mutant): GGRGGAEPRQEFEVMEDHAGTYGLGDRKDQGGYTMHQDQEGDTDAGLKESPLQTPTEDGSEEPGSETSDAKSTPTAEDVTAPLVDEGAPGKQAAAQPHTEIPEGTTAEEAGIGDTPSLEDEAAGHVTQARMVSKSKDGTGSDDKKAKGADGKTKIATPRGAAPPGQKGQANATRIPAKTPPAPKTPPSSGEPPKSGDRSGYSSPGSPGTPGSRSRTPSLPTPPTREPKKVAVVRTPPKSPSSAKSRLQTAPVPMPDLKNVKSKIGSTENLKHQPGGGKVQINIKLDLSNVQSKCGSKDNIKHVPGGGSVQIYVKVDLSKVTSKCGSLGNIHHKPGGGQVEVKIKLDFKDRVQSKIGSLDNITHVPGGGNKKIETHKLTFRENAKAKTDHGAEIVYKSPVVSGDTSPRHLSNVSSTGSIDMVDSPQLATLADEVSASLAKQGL
# wild-type human tau 441 with GFP fused at the N-terminal (human), sequence (P10636 other isoform, or with tags, fused parts or gaps): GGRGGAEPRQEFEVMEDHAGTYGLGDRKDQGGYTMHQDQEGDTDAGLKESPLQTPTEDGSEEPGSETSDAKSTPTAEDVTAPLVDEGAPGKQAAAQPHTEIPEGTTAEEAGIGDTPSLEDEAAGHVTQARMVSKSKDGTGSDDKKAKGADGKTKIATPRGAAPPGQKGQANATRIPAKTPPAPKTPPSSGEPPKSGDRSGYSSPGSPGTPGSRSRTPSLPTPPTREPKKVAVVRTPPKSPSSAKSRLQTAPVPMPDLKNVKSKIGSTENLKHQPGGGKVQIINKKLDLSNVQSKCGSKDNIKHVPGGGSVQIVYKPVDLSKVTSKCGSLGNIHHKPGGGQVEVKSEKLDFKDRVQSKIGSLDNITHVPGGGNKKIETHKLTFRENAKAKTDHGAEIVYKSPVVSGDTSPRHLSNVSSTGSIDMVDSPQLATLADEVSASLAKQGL
Substance,percentage of transfected cells with AT8 immunolabeling [1],percentage of transfected cells with AT8 immunolabeling [2],percentage of transfected cells AT180 immunopositive [3]
AT8 antibody (S202/T205 specific),83.2%,9.17%,
AT180 antibody (phosphoepitope T231),,,22.1%
